Results on two molecules are retold here after US20150266963A1.

Assay [1] deals with T1, human CD70 expressed on the surface of cells (human) (UniProt P32970).
T1 sequence (looked up): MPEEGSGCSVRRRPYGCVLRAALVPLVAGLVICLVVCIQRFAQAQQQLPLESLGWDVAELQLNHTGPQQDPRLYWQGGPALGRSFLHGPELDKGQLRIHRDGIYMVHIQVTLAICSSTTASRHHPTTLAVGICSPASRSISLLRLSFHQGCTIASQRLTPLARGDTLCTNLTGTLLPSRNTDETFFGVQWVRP
As to the kind of experiment: cell-based or functional assay.

The target in assay [2] is T2, recombinant human CD70 (Flag-TNC-CD70) (human) (UniProt P32970).
T2 sequence (looked up): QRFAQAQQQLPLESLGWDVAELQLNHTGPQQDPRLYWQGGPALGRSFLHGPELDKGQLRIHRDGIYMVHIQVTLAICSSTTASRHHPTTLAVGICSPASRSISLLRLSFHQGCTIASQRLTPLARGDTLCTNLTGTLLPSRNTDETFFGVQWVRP
As to the kind of experiment: blocking ELISA; human Flag-TNC-CD70; competitor CD27-Fc.

Assay [3] has as its target rhesus recombinant CD70 (FLAG-TNC-rhesus CD70) (rhesus). As to the kind of experiment: blocking ELISA; rhesus Flag-TNC-CD70; competitor CD27-Fc. On the technique in general: ELISA stands for enzyme-linked immunosorbent assay.
Assay [4] addresses cynomolgus monkey Flag-TNC-CD70 (cynomolgus monkey). Description: blocking ELISA; cynomolgus Flag-TNC-CD70; competitor CD27-Fc.
The target in assay [5] is T2, recombinant human CD70 (Flag-TNC-CD70) (human). Description: inhibition ELISA; Flag-TNC-CD70 captured by anti-Flag mAb; competitor CD27-Fc.
In assay [6] the target is T1, human CD70 expressed on the surface of cells (human). Description: flow cytometry on U266 cells, goat anti human IgG1 FITC [panel U266].
Assay [7] has as its target T2, recombinant human CD70 (Flag-TNC-CD70) (human). Description: blocking ELISA; Flag-TNC-CD70 captured by anti-FLAG M2; competitor CD27-Fc 6.5 nM.
Assay [8] addresses T3, rhesus CD70 on LCL8664 cells (rhesus) (UniProt F7GPA5).
T3 sequence: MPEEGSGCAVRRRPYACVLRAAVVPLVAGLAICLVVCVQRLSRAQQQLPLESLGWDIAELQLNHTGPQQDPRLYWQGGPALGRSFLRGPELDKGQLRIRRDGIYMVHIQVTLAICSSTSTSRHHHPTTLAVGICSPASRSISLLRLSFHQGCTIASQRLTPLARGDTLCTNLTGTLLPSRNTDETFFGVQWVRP
As to the kind of experiment: flow cytometry on rhesus LCL8664 cells, goat anti human IgG1 FITC [panel Rhesus monkey]. In general terms: Flow cytometry measures light scatter and fluorescence of single cells or particles in a stream.

In assay [9] the target is T1, human CD70 expressed on the surface of cells (human). As to the kind of experiment: flow cytometry on U266 cells, 1 h at 4 °C, anti-hIgG1-Fc-FITC or anti-hIgG-Fc-PE [panel U266].
The target in assay [10] is T2, recombinant human CD70 (Flag-TNC-CD70) (human). Description: Biacore; recombinant human CD70 on CM5 chip; Fab injected. In general terms: SPR reads the build-up and loss of mass on a sensor chip optically.
Assay [11] has the same target. As to the kind of experiment: Biacore; recombinant human CD70 on CM5 chip; Fab from papain digestion.

Usually IC50 stands for the midpoint of a concentration-inhibition curve. As usually defined, the EC50 (read off the curve) is the concentration giving half of the maximal effect. As a reminder, the koff is the first-order rate constant of dissociation.

B1: SGN70 (antibody, INN chains, looked up, V domains shown)
VH: QVQLVQSGAEVKKPGASVKVSCKASGYTFTNYGMNWVRQAPGQGLKWMGWINTYTGEPTYADAFKGRVTMTRDTSISTAYMELSRLRSDDTAVYYCARDYGDYGMDYWGQGTTVTVSS
VL: DIVMTQSPDSLAVSLGERATINCRASKSVSTSGYSFMHWYQQKPGQPPKLLIYLASNLESGVPDRFSGSGSGTDFTLTISSLQAEDVAVYYCQHSREVPWTFGQGTKVEIK
Molecule B1 returned an IC50 (ng/ml), IL-8 secretion in Raji / HT1080-CD27 co-culture assay in assay [1] of 55 ng/mL. In addition, the IC50 in assay [2] turned out to be 0.054 µg/mL; in assay [3] it was 0.178 µg/mL; in assay [4], 0.112 µg/mL; in assay [5] it was 0.33 µg/mL; in assay [7] it was 4.97 µg/mL. Moreover, the EC50 (read off the curve) in assay [6] was determined as 0.08 µg/mL; in [8], 0.1 µg/mL; in [9] it was 0.08 µg/mL.

B2: SGN70-Fab (Fab, INN chains, looked up, V domains shown)
VH: B1 VH
VL: B1 VL
modifications: Fab
Take B2: the koff in assay [10] and in assay [11] was 0.0007 s⁻¹ throughout.
